Results published in patent US20240279325A1 (Chugai, published 2024).

T1: human FcγRIIb extracellular domain with C-terminal His tag (human, UniProt P31994 43-217)
T1 construct: extracellular domain; not shown: His tag at the C terminus
T1 sequence (looked up): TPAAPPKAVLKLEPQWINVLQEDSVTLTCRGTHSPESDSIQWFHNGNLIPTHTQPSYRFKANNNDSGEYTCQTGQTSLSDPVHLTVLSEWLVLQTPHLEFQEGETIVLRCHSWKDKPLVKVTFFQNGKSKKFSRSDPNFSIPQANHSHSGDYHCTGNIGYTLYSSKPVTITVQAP


How the values were obtained:
[1] = target: T2, human FcγRIIIa type V (allotype V158) extracellular domain with C-terminal His tag (human, UniProt P08637 17-208); test: SPR (Biacore), antibody captured, FcγR analyte
T2 construct: extracellular domain; also called FcγRIIIaV; FcγRIIIa V type; not shown: His tag at the C terminus
T2 sequence (P08637 17-208 F176V): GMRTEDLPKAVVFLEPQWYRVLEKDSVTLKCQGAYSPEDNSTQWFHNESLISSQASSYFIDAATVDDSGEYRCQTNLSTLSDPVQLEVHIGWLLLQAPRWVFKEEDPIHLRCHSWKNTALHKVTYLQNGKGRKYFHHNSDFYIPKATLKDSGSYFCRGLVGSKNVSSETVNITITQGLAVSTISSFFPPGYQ

[2] = target: T1, human FcγRIIb extracellular domain with …; test: SPR (Biacore); parent is IL6R-B3/IL6R-L
[3] = target: T1, human FcγRIIb extracellular domain with …; test: ratio of SPR KDs, FcγRIIaH over FcγRIIb
[4] = target: T1, human FcγRIIb extracellular domain with …; test: ratio of SPR KDs, FcγRIIaR over FcγRIIb
[5] = target: T3, human FcγRIa extracellular domain with C-terminal His tag (human, UniProt P12314 16-292); test: SPR (Biacore), antibody captured, FcγR analyte
T3 construct: not shown: His tag at the C terminus
T3 sequence (P12314 16-292): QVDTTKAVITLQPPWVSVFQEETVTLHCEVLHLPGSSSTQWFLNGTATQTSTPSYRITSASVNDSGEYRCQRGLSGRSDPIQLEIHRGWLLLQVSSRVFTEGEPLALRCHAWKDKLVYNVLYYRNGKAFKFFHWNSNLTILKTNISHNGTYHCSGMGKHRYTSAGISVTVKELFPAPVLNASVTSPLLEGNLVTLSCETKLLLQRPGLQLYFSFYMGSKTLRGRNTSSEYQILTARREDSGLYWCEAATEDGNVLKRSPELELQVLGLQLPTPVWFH

Kd [1] | KD(IIb) of the parent polypeptide/KD(IIb) of altered polypeptide [2] | KD(IIaH)/KD(IIb) [3] | KD(IIaR)/KD(IIb) [4] | Kd [5] | Binder
60 µM | – | – | – | – | IL6R-BP217/IL6R-L (antibody, human IgG1, kappa, name in EU numbering, EU numbering; copies: 2 + 2) heavy: QVQLQESGPGLVKPSETLSLTCAVSGHSISHDHAWSWVRQPPGEGLEWIGFISYSGITNYNPSLQGRVTISRDNSKNTLYLQMNSLRAEDTAVYYCARSLARTTAMDYWGEGTLVTVSSASTKGPSVFPLAPSSKSTSGGTAALGCLVKDYFPEPVTVSWNSGALTSGVHTFPAVLQSSGLYSLSSVVTVPSSSLGTQTYICNVNHKPSNTKVDKKVEPKSCDKTHTCPPCPAPELLGDDSVFLFPPKPKDTLMISRTPEVTCVVVDVQDEDGEVKFNWYVDGVEVHNAKTKPREEQDNSTYRVVSVLTVLHQDWLNGKEYKCKVSNKALPKPIEKTISKAKGQPREPQVYTLPPSRDELTKNQVSLTCLVKGFYPSDIAVEWESNGQPENNYKTTPPVLDSDGSFFLYSKLTVDKSRWQQGNVFSCSVMHEALHNHYTQESLSLSP light: not shown
– | 15.7 fold | 102 | 11 | – | IL6R-BP198/IL6R-L (antibody, human IgG1, kappa, name in EU numbering, EU numbering; copies: 2 + 2) heavy: QVQLQESGPGLVKPSETLSLTCAVSGHSISHDHAWSWVRQPPGEGLEWIGFISYSGITNYNPSLQGRVTISRDNSKNTLYLQMNSLRAEDTAVYYCARSLARTTAMDYWGEGTLVTVSSASTKGPSVFPLAPSSKSTSGGTAALGCLVKDYFPEPVTVSWNSGALTSGVHTFPAVLQSSGLYSLSSVVTVPSSSLGTQTYICNVNHKPSNTKVDKKVEPKSCDKTHTCPPCPAPDYLGGDSVFLFPPKPKDTLMISRTPEVTCVVVDVSDEDGEVKFNWYVDGVEVHNAKTKPREEQYNSTYRVVSVLTVLHQDWLNGKEYKCKVSNAALPKPIEKTISKAKGQPREPQVYTLPPSRDELTKNQVSLTCLVKGFYPSDIAVEWESNGQPENNYKTTPPVLDSDGSFFLYSKLTVDKSRWQQGNVFSCSVMHEALHNHYTQESLSLSP light: not shown
– | 62.3 fold | 201 | 18.2 | 0.026 µM | IL6R-BP195/IL6R-L (antibody, human IgG1, kappa, name in EU numbering, EU numbering; copies: 2 + 2) heavy: QVQLQESGPGLVKPSETLSLTCAVSGHSISHDHAWSWVRQPPGEGLEWIGFISYSGITNYNPSLQGRVTISRDNSKNTLYLQMNSLRAEDTAVYYCARSLARTTAMDYWGEGTLVTVSSASTKGPSVFPLAPSSKSTSGGTAALGCLVKDYFPEPVTVSWNSGALTSGVHTFPAVLQSSGLYSLSSVVTVPSSSLGTQTYICNVNHKPSNTKVDKKVEPKSCDKTHTCPPCPAPDYLGDDSVFLFPPKPKDTLMISRTPEVTCVVVDVSDEDGEVKFNWYVDGVEVHNAKTKPREEQDNSTYRVVSVLTVLHQDWLNGKEYKCKVSNAALPKPIEKTISKAKGQPREPQVYTLPPSRDELTKNQVSLTCLVKGFYPSDIAVEWESNGQPENNYKTTPPVLDSDGSFFLYSKLTVDKSRWQQGNVFSCSVMHEALHNHYTQESLSLSP light: not shown
40 µM | – | – | – | – | IL6R-BP231/IL6R-L (antibody, human IgG1, kappa, name in EU numbering, EU numbering; copies: 2 + 2) heavy: QVQLQESGPGLVKPSETLSLTCAVSGHSISHDHAWSWVRQPPGEGLEWIGFISYSGITNYNPSLQGRVTISRDNSKNTLYLQMNSLRAEDTAVYYCARSLARTTAMDYWGEGTLVTVSSASTKGPSVFPLAPSSKSTSGGTAALGCLVKDYFPEPVTVSWNSGALTSGVHTFPAVLQSSGLYSLSSVVTVPSSSLGTQTYICNVNHKPSNTKVDKKVEPKSCDKTHTCPPCPAPELLGDDSVFLFPPKPKDTLMISRTPEVTCVVVDVSDEDGEVKFNWYVDGVEVHNAKTKPREEQDNSTYRVVSVLTVLHQDWLNGKEYKCKVSNKALPRPIEKTISKAKGQPREPQVYTLPPSRDELTKNQVSLTCLVKGFYPSDIAVEWESNGQPENNYKTTPPVLDSDGSFFLYSKLTVDKSRWQQGNVFSCSVMHEALHNHYTQESLSLSP light: not shown
